Source: patent US20250114467A1 (SHANGHAI FUDAN ZHANGJIANG BIO PHARMACEUTICAL, published 2025)

T1: mouse DLL3 on overexpressing cells (plasmid pCMV3-mDLL3, MG58052-UT) (mouse, UniProt O88516 33-592)
T1 construct: whole, on cells
T1 sequence (looked up): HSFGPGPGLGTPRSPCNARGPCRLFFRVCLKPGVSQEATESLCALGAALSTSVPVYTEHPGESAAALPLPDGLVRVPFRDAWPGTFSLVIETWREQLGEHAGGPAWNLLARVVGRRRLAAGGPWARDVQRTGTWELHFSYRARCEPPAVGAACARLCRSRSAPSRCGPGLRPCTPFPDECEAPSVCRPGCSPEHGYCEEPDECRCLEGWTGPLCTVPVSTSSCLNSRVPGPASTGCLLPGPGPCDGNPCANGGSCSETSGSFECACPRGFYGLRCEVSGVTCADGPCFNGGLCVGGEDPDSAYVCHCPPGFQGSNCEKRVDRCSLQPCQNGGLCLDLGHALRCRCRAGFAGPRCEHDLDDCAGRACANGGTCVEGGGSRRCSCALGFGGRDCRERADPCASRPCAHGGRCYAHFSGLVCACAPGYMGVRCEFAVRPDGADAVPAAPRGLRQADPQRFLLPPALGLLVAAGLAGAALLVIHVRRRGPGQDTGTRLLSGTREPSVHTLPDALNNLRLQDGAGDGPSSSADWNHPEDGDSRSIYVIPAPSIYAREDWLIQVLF

B1: ch15G2 (antibody, human IgG1, kappa, V domains shown)
VH: EVQLQQSGPELEKPGASVRISCKASGYSFTDYNMHWVKQSNGKSLEWIGNIDPYYGGTNYNQKFEGKATLTVDKSSSTAYMQLKSLTSEDSAVYYCARGGNNYGDYWGQGTTLTVSS
VL: DIQMTQSPASLAASVGETVTITCRASENIYYSLAWYQQKQGKSPQLLIFNANSLEDGVPSRFSGSGSGTQYSMKINSMQPEDTATYFCKQAYDVPWTFGGGTKLEIKR
notes: Chimeric: murine variable regions on human IgG1 heavy and kappa light constant regions; also called chimeric antibody 15G2
B2: ch32E8 (antibody, human IgG1, kappa, V domains shown)
VH: QVTLKESGPGILQPSQTLSLTCSFSGFSLSTSGMGVGWIRQPSGKGLEWLALIWWDDVKRYHPALKSRLTISKDTSSSQVFLKIASVDTADTATYYCARIAEVTGQVGLHYAMDYWGQGTSVTVSS
VL: QTVLTQSPAIMSASLGERVTMTCTASSSVNSSSLHWYQQKPGSSPKLWIYTTSNLASGVPARFSGSGSGTSYSLTISSMEAEDAATYYCHQFHRSPFTFGSGTKLEIKR
notes: Chimeric: murine variable regions on human IgG1 heavy and kappa light constant regions; also called chimeric antibody 32E8

Molecular target: T1, mouse DLL3 on overexpressing cells …
Assay: flow cytometry on cells overexpressing mouse DLL3, APC goat anti-human IgG, MFI [left panel]
Experimental: After washing with 80 μl of PBST (0.1% Tween20) for five times, 25 μl of HRP-labeled goat anti-human secondary antibody (Jackson, 1:10000) was added to each well and incubated at room temperature for 1 hour, discard the supernatant, and the wells were then washed seven times with 80 μl of PBST (0.1% Tween20). After adding 25 μl of TMB chromogen solution for 10 minutes, the reaction was terminated with 2M HCl, and the absorbance value at 450 nm was measured with a Microplate reader (purchased from Biotek, Elx808). […] The binding abilities of the chimeric antibodies to these cells were determined by flow cytometry to assess the cross-reactivity of the antibodies with different species. […] The chimeric antibodies, FDA027, and FDA031 were pre-diluted to 50 μg/ml, and further diluted in a 4-fold gradient across 8 concentration points, with 200 μL of the antibodies to be detected of different concentrations added to each well and incubated on ice for 30 minutes. […] After washing with PBS four times, 100 μL PBS was added to each well to resuspend the cells, which were then analyzed using CytoFLEX (Beckman).

binding result	Binder
no binding (tested: 50 µg/ml)	B1
no binding (tested: 50 µg/ml)	B2
